Data published in paper PMC9340783.

Legend:
hGITR ECD hFc (human) [1] = molecular target: hGITR ECD hFc (human) (UniProt Q9Y5U5); experiment: SPR
[2] = molecular target: human GITR on 293F‐hGITR cells (human) (UniProt Q9Y5U5); experiment: flow cytometry on cells; 293F‐hGITR or 293F‐cynoGITR cells incubated with antibodies at 4 °C for 1 h, fluorescent anti-rat/human secondary antibody; EC50 of MFI curve
[3] = molecular target: cynoGITR on 293F‐cynoGITR cells (cynomolgus); experiment: as above
hGITR ECD hFc (human) [4] = molecular target: hGITR ECD hFc (human) (UniProt Q9Y5U5); experiment: SPR; Biacore T200; hGITR ECD hFc immobilised on a Series S CM5 chip; antibody 0, 3.125, 6.25, 12.5, 25 and 50 nM; association 180 s, dissociation 600 s
[5] = molecular target: human GITR on 293F‐hGITR cells (human) (UniProt Q9Y5U5)
hGITR ECD hFc (human) [6] = molecular target: hGITR ECD hFc (human) (UniProt Q9Y5U5); experiment: ELISA; indirect ELISA; antigen hFc fusion protein coated on 96-well plates (1 μg·mL^−1 overnight at 4 °C in Fig. 3B), antibody added, detected with anti-rat IgG/hIgG-peroxidase antibody
[7] = molecular target: cynoGITR ECD hFc (cynomolgus); experiment: as above

Sequence of hGITR ECD hFc (human) (Q9Y5U5 other isoform, or with tags, fused parts or gaps): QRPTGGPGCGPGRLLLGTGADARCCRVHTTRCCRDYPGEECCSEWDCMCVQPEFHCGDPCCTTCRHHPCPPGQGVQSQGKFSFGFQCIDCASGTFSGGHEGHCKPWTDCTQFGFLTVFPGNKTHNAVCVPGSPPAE
Sequence of human GITR on 293F‐hGITR cells (human) (Q9Y5U5 26-241): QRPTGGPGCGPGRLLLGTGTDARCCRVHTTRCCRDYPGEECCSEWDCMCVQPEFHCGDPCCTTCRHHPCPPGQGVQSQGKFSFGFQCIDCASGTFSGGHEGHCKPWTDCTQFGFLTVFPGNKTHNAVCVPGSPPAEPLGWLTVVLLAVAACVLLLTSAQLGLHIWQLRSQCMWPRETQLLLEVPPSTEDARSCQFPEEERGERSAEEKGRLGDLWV

koff (hGITR ECD hFc (human) [1])	EC50 [2]	EC50 [3]	Kd (hGITR ECD hFc (human) [4])	NF‐ĸB luciferase reporter assay, Crosslinking, EC50 [5]	NF‐ĸB luciferase reporter assay, Crosslinking, Top ratio [5]	NF‐ĸB luciferase reporter assay, No crosslinking, EC50 [5]	NF‐ĸB luciferase reporter assay, No crosslinking, Top ratio [5]	T‐cell activation (IFN‐γ secretion), Donor#1, EC50 [5]	T‐cell activation (IFN‐γ secretion), Donor#2, EC50 [5]	T‐cell activation (IFN‐γ secretion), Donor#3, EC50 [5]	EC50 (hGITR ECD hFc (human) [6])	EC50 [7]	Substance
0.0044 s⁻¹	–	–	–	–	–	–	–	–	–	–	–	–	Tab6C8
–	0.027 nM	0.007 nM	3.82 nM	0.336 nM	32 fold	0.829 nM	14 fold	0.0106 nM	0.00559 nM	0.00681 nM	0.954 nM	1.12 nM	Tab6C8 (antibody)
